Biological target: T1, CD20 on the CD20+ human Daudi Burkitt lymphoma cell line (human, UniProt P11836 1-297)
T1 construct: whole, on cells; also called Daudi cells
T1 sequence (looked up): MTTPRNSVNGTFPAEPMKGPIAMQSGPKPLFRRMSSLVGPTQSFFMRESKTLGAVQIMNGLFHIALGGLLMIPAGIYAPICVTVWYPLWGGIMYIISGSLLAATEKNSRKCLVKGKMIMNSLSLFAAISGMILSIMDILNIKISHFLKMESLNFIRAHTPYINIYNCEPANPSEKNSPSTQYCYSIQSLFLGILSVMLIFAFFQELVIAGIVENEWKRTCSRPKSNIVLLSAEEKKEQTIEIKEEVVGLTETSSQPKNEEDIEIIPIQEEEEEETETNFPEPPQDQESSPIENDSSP
Test: FACS binding assay on CD20+ Daudi cells, serial dilutions of antibody

B1: chimeric anti-CD20 antibody (unmodified chimeric Leu 16) (antibody, human IgG1, V domains shown)
VH: EVQLQQSGAELVKPGASVKMSCKASGYTFTSYNMHWVKQTPGQGLEWIGAIYPGNGDTSYNQKFKGKATLTADKSSSTAYMQLSSLTSEDSADYYCARSNYYGSSYWFFDVWGAGTTVTVSS
VL: DIVLTQSPAILSASPGEKVTMTCRASSSVNYMDWYQKKPGSSPKPWIYATSNLASGVPARFSGSGSGTSYSLTISRVEAEDAATYYCQQWSFNPPTFGGGTKLEIK
notes: Only the variable regions are printed
  binding result: binds

— WO2008044032A2 (dated 2008)
